According to patent US20140286976A1 (ARGEN X B V, published 2014):

Target: T1, Human c-Met ECD (Flag and strep tag) (human, UniProt P08581 25-932)
T1 construct: also called HMet; Human Wt c-Met; not shown: Flag and strep tag
Experiment: ELISA; mAb immobilized (2 µg/ml), c-Met protein added, streptavidin-HRP

T1 sequence (P08581 25-932): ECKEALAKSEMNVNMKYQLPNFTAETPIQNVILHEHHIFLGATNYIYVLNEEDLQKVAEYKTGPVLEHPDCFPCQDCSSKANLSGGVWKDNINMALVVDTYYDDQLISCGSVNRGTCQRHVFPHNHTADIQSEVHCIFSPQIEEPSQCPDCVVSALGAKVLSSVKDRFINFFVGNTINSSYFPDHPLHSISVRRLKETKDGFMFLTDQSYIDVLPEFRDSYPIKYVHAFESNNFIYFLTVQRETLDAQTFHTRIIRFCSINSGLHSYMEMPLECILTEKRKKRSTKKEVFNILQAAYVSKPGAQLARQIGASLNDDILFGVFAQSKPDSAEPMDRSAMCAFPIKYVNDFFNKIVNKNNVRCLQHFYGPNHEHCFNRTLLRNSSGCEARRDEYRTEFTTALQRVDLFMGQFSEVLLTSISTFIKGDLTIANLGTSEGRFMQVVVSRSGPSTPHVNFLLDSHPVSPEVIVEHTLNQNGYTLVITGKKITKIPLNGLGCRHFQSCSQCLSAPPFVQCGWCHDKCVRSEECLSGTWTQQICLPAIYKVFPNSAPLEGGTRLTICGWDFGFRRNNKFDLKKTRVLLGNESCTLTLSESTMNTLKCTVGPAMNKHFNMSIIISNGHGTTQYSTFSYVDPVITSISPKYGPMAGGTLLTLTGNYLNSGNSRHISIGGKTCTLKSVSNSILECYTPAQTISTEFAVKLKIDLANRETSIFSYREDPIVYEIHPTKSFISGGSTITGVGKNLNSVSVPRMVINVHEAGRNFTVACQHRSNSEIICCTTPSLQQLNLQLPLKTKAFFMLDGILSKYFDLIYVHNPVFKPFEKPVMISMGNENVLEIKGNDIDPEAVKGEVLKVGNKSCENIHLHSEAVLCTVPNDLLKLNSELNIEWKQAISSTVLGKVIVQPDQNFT

B1: 48A2 (antibody, V domains shown)
VH: EVQLVQPGVELRNPGASVKVSCKASGYIFTMNSIDWVRQAPGQGLEWMGRIDPEDGGTKYAQKFQGRVTFTADTSTSTAYVELNSLRSEDTAVYYCARVDDYYLGYDYWGQGTQVTVSS
VL: DIVMTQTPTSVTASAGDKVTINCKSSQSVLFSSNQKNYLAWYQQRLGQSPRLLIYWASIRESGVPDRFSGSGSATDFTLTISNFQPEDAAVYYCQQGYSFPYSFGSGTRLEIR
B1 was tested. Which EC50 did it give?
Its EC50 is 0.045 mg/L.
